Results as given in patent US20130273567A1, “Screening Method for Candidate Agonist Compounds for Adiponectin Receptor I” (priority 2010, published 2013).

Columns and labels:
[1] = biological target: T1, AdipoR1 (Mus musculus, UniProt Q91VH1); assay: Calcium imaging in skeletal muscle (soleus, fura-2); type: cell-based, mice; set-up: from tissue; host or cells: soleus muscle of control (Adipor1 lox/lox) and muscle-R1KO mice; conditions: adiponectin 30 μg/ml
T1 sequence (Q91VH1 1-375): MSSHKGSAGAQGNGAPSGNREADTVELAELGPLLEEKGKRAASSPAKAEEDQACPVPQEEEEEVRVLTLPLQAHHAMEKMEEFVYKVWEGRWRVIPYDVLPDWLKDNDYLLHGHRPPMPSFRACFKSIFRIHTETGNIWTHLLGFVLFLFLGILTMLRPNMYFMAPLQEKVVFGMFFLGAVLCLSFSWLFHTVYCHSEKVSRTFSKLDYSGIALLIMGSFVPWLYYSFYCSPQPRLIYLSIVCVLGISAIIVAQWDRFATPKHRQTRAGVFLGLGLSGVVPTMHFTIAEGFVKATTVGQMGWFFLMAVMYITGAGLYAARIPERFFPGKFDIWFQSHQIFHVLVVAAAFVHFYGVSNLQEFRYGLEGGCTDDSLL
Protocol: From 8-10 weeks-old mice, soleus muscles were dissected. Preparations were treated with 5 μM fura-2/AM in the presence of 0.1% Chremophore EL (Sigma) for 15 min. Fluorescence images were acquired using an inverted fluorescence microscopy (IX71, Olympus) equipped with a cooled charge-coupled device (CCD) camera (iXon, Andor) and a dry objective lens (10×, NA=0.3, Olympus) through a filter set consisting of a 327-353 nm and 369-391 nm excitation filter, a 409 nm dichroic mirror, and a 515-560 nm fluorescent filter. Ligands were supplied using the superfusing Ringer's solution (150 mM NaCl, 4 mM KCl, 2.0 mM CaCl2, 1.0 mM MgCl2, 30 mM D-glucose, 5 mM HEPES (pH 7.4)).

[2] = system: C2C12 myocytes; assay: Mitochondrial content assay in C2C12 myocytes (mtDNA copy number, MitoTracker Green); type: cell-based, mouse
Protocol: Mice used were from 8 to 10 week old at the time of the experiment. […] Induction of myogenic differentiation using C2C12 cells was carried out according to the method described in the following document (Nature Med. 8, 1288-1295 (2002)). By day 5, the cells had differentiated into multinucleated contracting myocytes. C2C12 myocytes were used after myogenic differentiation in all experiments.
(§1) The mouse C2C12 myoblasts were grown in 90% Dulbecco's modified high glucose Eagle's medium containing 10% (v/v) fetal bovine serum. When the cells reached 80% confluent, the myoblasts were induced to differentiate into myocytes by replacing the medium with a low serum differentiation medium (98% Dulbecco's modified high glucose Eagle's medium, 2.5% (v/v) horse serum). The medium was changed daily. The C2C12 cells were transfected by using Pofectamine 2000 (Invitrogen) and following the manufacturer's instructions.
Mitochondrial content assays were carried out as described in the following document (Cell Metab. 4, 75-87 (2006)), with slight modifications. Quantification of the mitochondrial content was conducted by using mtDNA and MitoTracker Green probe (Molecular Probes) according to the method as described in the following document (Obes. Res. 13, 574-581 (2005)). MitoTracker Green probe preferentially accumulates in mitochondria regardless of the mitochondrial membrane potential and provides an accurate assessment of mitochondrial mass. Cells were washed with PBS and after addition of 100 nM MitoTracker Green FM (Molecular Probes), incubated at 37° C. for 30 min. Cells were harvested by using trypsin/EDTA and resuspended in PBS. Fluorescence intensity was detected with excitation and emission wavelengths of 490 and 516 nm, respectively, and the values thus measured were corrected for total protein (mg/ml).

[3] = biological target: T2, mAdipoR1 (Mus musculus, UniProt Q91VH1); assay: Xenopus oocytes injected with AdipoR1 cRNA, two-electrode voltage clamp recording; type: cell-based
T2 construct: expressed in transfected cells; host or cells: Xenopus oocytes (stage V to VII) injected with cRNA
T2 sequence (Q91VH1 1-375): T1 sequence (Q91VH1 1-375)
Protocol: Stage V to VII oocytes were treated with 2 mg/ml of collagenase S-1 (Nitta gelatin) in calcium ion-free saline solution (82.5 mM NaCl, 2 mM KCl, 1 mM MgCl2, and 5 mM HEPES, pH 7.5) for 1 to 2 hr at room temperature. The resulting oocytes were then microinjected with 50 ng of cRNA for mAdipoR1. The cRNA was synthesized from linearized modified pSPUTK. The injected oocytes were incubated for 3 days at 18° C. in a bath solution (88 mM NaCl, 1 mM KCl, 0.3 mM Ca(NO3)2, 0.4 mM CaCl2, 0.8 mM MgSO4, 2.4 mM NaHCO3, 15 mM HEPES, pH 7.6) supplemented with 10 μg/ml of penicillin and streptomycin.
Whole cell currents were recorded with a two-electrode voltage clamp technique. Intracellular glass electrodes were filled with 3M KCl. Signals were amplified with an OC-725C amplifier (Warner Instruments), low-pass filtered at 50 Hz, and digitized at 1 kHz. A control bath solution contained 115 mM NaCl, 2.5 mM KCl, 1.8 mM CaCl2, and 10 mM HEPES. It was titrated to pH 7.2 with NaOH. A calcium ion free solution containing 1.8 mM BaCl2 instead of CaCl2 was used. The inward current was monitored at a holding potential of −80 mV. Calcium ion activated Cl^− current was monitored by applying 500-mscc depolarizing pulses of +100 mV and +50 mV from the holding potential of −80 mV. Adiponectin was supplied to the superfusing bath solution via a silicon tube connected to computer-driven solenoid valves. Data acquisition and analysis were carried out using Digidata 1322A and pCLAMP software.

[4] = system: CaMKI, HDAC5; assay: Phosphorylation of CaMKI and HDAC5 in C2C12 myocytes (immunoblotting); type: cell-based, mouse; conditions: adiponectin 30 μg/ml, 0-20 min
Protocol: as §1

[5] = system: C2C12 myocytes; assay: NAD+/NADH measurements in C2C12 myocytes; type: cell-based, mouse; conditions: C2C12 myocytes treated with adiponectin
Protocol: NAD^+ and NADH nucleotides were directly measured by the method described in the following document (Nature, 458, 1056-1060 (2009)). Whole skeletal muscles or two 10 cm dishes of C2C12 myocytes were homogenized in 200 μl of an acid extraction buffer to measure the NAD^+ concentration, or 200 μl of alkali extraction to obtain the NADH concentration. Next, homogenates were neutralized and the concentration of nucleotides was measured fluorimetrically after an enzymatic cycling reaction using 5 μl of a sample. Values for both nucleotides were detected within the linear range. NAD^+/NADH ratios were calculated by comparing the ratios obtained from each animal or from parallel cell dishes in each experiment.

[6] = system: AMPK; assay: AMPK phosphorylation in C2C12 myocytes (immunoblotting); type: cell-based, mouse; conditions: C2C12 myocytes, adiponectin 30 μg/ml
Protocol: as §1

[7] = C2C12 myocytes incubated with 30 μg/ml adiponectin

B1: adiponectin: recombinant murine full-length adiponectin, internal ligand of adiponectin receptor 1 (protein, UniProt Q60994 1-247, looked up)
chain: MLLLQALLFLLILPSHAEDDVTTTEELAPALVPPPKGTCAGWMAGIPGHPGHNGTPGRDGRDGTPGEKGEKGDAGLLGPKGETGDVGMTGAEGPRGFPGTPGRKGEPGEAAYVYRSAFSVGLETRVTVPNVPIRFTKIFYNQQNHYDGSTGKFYCNIPGLYYFSYHITVYMKDVKVSLFKKDKAVLFTYDQYQEKNVDQASGSVLLHLEVGDQVWLQVYGDGDHNGLYADNVNDSTFTGFLLYHDTN
modifications: full-length
- intracellular calcium ion concentration in soleus muscle (fura-2) ([1]; control mice): increased
- calcium responses of soleus muscle to adiponectin ([1]; muscle-R1KO mice): almost completely disappeared
- mitochondrial biogenesis ([2]; C2C12 myocytes expressing PGC-1α-R13 mutant): failed to further induce
- amount of mitochondria as assessed by MitoTracker green [2, 7]: increased
- mitochondrial DNA content [2, 7]: increased
- calcium-ion activated Cl- current response ([3]; control oocytes (no AdipoR1 cRNA), adiponectin 30 μg/ml): not observed
- inward current responses ([3]; oocytes expressing AdipoR1, holding potential -80 mV, adiponectin 30 μg/ml 30 sec): induced
- intracellular calcium levels by calcium-ion activated Cl- current ([3]; oocytes injected with AdipoR1 complementary RNA, adiponectin 30 μg/ml): increase
- CaMKI phosphorylation [4]: rapid, robust, and transient increase
- HDAC5 phosphorylation [4]: increased
- NAD+ and NADH contents [5]: increased
- NAD+/NADH ratio [5]: increased
- phosphorylation of AMPK α-subunits at Thr 172 [6]: increased
